The text below walks through data of patent US20190187132A1.

Assay [1] deals with Trichinella spiralis lysate.
Assay [2] addresses Trichinella spiralis lysate. This is another data set of the same source.
For assay [3], the target named is Trichinella spiralis E/S antigen.

Where two headings read alike, the source gives them in different places.

B1: Anti-[TRISP][18H1] (antibody, V domains shown)
VH: QVQLKESGPGLVQPSQTLSLTCTVSGLSLTSNSVGWIRQPPGKGLEWMGIIWSNGGTDYNSAIKSRLSISRDTSKSQVFLKMHSLQTEDTAMYFCARGPYYGSYRLGYFDYWGQGVMVTVSS
VL: DVVMTQSPSSLAVSAGETVTLNCQSSQSLLYSGTQNNYLAWYQQKPGQSPKLLISWASTRQSGVPLRFIGSGSGTDFTLTITSVQAEDLAIYYCQQFYDTPLTFGSGTKLEIK
Regarding B1, the detection limit in assay [1] was determined as 1 ng/mL; in assay [2], 10 µg/mL.

B2: Anti-[TRISP][C9] (antibody, V domains shown)
VH: AVTLDESGGGLQTPGGALSLVCKASGFSISSYSMQWVRQAPGKGLEWVAGIYYDGNTWYAPAVKGRATISRDNGQSTVRLRLNNLRAEDTATYFCAKYAGGYSIDAWGHGTEVIVSS
VL: ALTQPSSVSANPGETVKITCSGSSGSYGWYQQKSPGSGPVTVIYYNDKRPSDIPSRFSGSASGSTATLTITGVQAEDEAVYFCGGYDSSTYVGIFGAGTTLTVL
For B2, the detection limit in assay [3] is 6 ng/mL.
